The target in this assay is C4 single-chain Fv antibody (C4 scFv) (human (from a human scFv phage-display …)). Description: ITC. (In general: Isothermal titration calorimetry measures the heat released or taken up as one component is titrated into another.)
For the molecule MATLEKLMKAFESLK [truncated peptide HTT(1-15)], the Ka stood at 6.87e+06 M⁻¹. MATLEKLMKAFESL [truncated peptide HTT(1-14)] showed a Ka of 3.09e+06 M⁻¹. As for MATLEKLMKAFESLKS [truncated peptide HTT(1-16)], the figure is 9.08e+06 M⁻¹. In turn, MATLEKLMKAFESLKSF [HTT(1-17) peptide, the 17 N-terminal residues of huntingtin] gave a Ka of 1.8e+07 M⁻¹.

These data come from paper PMC4451460 (2015).
